From patent US20240424127A1 (BRIGHT PEAK THERAPEUTICS, published 2024)
Read-outs that look alike come from different tables or passages of the source. Bridges are numbered along the chain shown (N, C = ends). [ ]: non-standard residue; d: D form. glutaryl‑PEG9‑azide = glutaryl-PEG9-azide group on the N-terminal amine; L6P = lysine side chain carrying PEG6-NH2 (diglycolyl-PEG-amine); hSer = N[C@@H](CCO)C(=O)O; Nle = CCCC[C@H](N)C(=O)O

T1: Recombinant Human IL-7R alpha/CD127 Fc Avi-tag Protein, CF (R&D Systems #AVI10317-050) (human, UniProt P16871 21-239)
T1 construct: Bought construct; It was loaded on streptavidin (SAX/SAX2) biosensors; not shown: Fc and Avi-tag of a bought protein
T1 sequence (looked up): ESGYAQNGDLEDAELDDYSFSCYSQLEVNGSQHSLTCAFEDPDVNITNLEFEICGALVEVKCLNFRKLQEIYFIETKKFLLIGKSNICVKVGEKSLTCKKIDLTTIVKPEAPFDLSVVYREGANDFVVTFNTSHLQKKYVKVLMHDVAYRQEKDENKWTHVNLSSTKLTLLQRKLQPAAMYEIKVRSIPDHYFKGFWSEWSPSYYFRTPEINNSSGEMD

T2: IL-7 receptor (IL-7Rα/γc heterodimer) on primary human T cells (human, UniProt P16871 21-459; P31785 23-369)
T2 sequence (looked up) 1: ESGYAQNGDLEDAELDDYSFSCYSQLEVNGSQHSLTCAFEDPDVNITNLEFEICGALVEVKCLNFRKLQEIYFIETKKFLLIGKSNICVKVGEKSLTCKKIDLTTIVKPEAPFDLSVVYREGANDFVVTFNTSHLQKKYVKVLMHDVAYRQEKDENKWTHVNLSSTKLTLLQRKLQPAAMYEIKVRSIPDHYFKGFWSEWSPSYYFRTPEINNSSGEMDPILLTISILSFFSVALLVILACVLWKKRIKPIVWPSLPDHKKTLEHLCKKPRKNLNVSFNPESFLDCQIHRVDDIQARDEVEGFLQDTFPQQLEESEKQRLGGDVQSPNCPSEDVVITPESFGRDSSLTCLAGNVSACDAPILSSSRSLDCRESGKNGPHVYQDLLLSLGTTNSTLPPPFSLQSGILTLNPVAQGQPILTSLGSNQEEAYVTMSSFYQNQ
T2 sequence (looked up) 2: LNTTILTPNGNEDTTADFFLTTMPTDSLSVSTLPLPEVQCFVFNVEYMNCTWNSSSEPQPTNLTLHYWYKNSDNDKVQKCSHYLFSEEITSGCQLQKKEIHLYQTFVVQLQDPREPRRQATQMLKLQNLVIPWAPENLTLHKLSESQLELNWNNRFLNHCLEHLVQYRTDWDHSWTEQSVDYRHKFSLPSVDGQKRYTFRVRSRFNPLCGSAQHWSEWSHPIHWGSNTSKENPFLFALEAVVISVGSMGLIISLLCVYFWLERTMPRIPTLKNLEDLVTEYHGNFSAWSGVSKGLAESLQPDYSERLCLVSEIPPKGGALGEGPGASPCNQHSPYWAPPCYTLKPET


Experiments:
[1] = biological target: T1, Recombinant Human IL-7R alpha/CD127 Fc …; assay: BLI (Octet R8); CD127-Fc-Avi loaded on SAX2 sensor, IL-7 polypeptide as analyte
[2] = biological target: T2, IL-7 receptor (IL-7Rα/γc heterodimer) …; assay: cell-based or functional assay
[3] = biological target: T1, Recombinant Human IL-7R alpha/CD127 Fc …; assay: BLI (Octet R8); CD127-Fc-Avi loaded on SAX2 sensor, IL-7 polypeptide as analyte; remark: listed apart in the source
[4] = biological target: T1, Recombinant Human IL-7R alpha/CD127 Fc …; assay: as above; remark: listed apart in the source
[5] = biological target: T1, Recombinant Human IL-7R alpha/CD127 Fc …; assay: as above; remark: listed apart in the source
[6] = biological target: T1, Recombinant Human IL-7R alpha/CD127 Fc …; assay: as above; remark: listed apart in the source
[7] = biological target: T1, Recombinant Human IL-7R alpha/CD127 Fc …; assay: as above; remark: listed apart in the source
[8] = biological target: T1, Recombinant Human IL-7R alpha/CD127 Fc …; assay: as above; remark: listed apart in the source
[9] = biological target: T1, Recombinant Human IL-7R alpha/CD127 Fc …; assay: as above; remark: listed apart in the source

Binder | EC50 pSTAT5, CD4 Memory [2] | EC50 pSTAT5, CD4 Naive [2] | EC50 pSTAT5, CD4 Treg [2] | EC50 pSTAT5, CD8 Memory [2] | EC50 pSTAT5, CD8 Naive [2] | other results
CMP-106, recombinant IL-7 V15W with His-tag (ligand, V15W is already in the entry, which also includes the C-terminal His-tag; also called IL-7 V15W (Recomb-HIS6)) DCDIEGKDGKQYESWLMVSIDQLLDSMKEIGSNCLNNEFNFFKRHICDANKEGMFLFRAARKLRQFLKMNSTGDFDLHLLKVSEGTTILLNCTGQVKGRKPAALGEAQPTKSLEENKSLKEQKKLNDLCFLKRLLQEIKTCWNKILMGTKEHVDHHHHHH | 0.93 nM | 0.814 nM | 27.7 nM | 3.22 nM | 1.28 nM | Kd [1]: 66.3 nM; koff [1]: 0.0321 s⁻¹; kon [1]: 485000 M⁻¹ s⁻¹
CMP-108, synthetic IL-7 of SEQ ID NO: 3 with glutaryl-PEG9-azide at the N-terminus (ligand, disulfide 34-129, 47-141, 2-92, The suffix is not explained; also called synthetic IL-7, WT with an N-terminal conjugation handle) {glutaryl‑PEG9‑azide}-DCDIEGKDGKQYESVL[Nle]VSIDQLLDS[Nle]KEIGSNCL[hSer]NEFNFFKRHICDANKEG[Nle]FLFRAARKLRQFLK[Nle]NSTGDF[hSer]LHLLKVSEGTTILLNCTGQVKGRKPAALGEAQPTKSL[hSer]ENKSLKEQKKLNDLCFLKRLLQEIKTCWNKIL[Nle]GTKEH-NH2 | 6 pM | 6 pM | 20 pM | 8 pM | 8 pM | Kd [3]: 0.254 nM; koff [3]: 0.00167 s⁻¹; kon [3]: 6.59e+06 M⁻¹ s⁻¹; Kd [4]: 2.75 nM; koff [4]: 0.00901 s⁻¹; kon [4]: 3.28e+06 M⁻¹ s⁻¹
CMP-200, IL-7 syntein missing C2-C92 disulphide bond, N-terminus with glutaric acid and azido-PEG (ligand, disulfide 34-129, 47-141, also called CMP-200-001) {glutaryl‑PEG9‑azide}-DSDIEGKDGKQYESVL[Nle]VSIDQLLDS[Nle]KEIGSNCL[hSer]NEFNFFKRHICDANKEG[Nle]FLFRAARKLRQFLK[Nle]NSTGDF[hSer]LHLLKVSEGTTILLNSTGQVKGRKPAALGEAQPTKSL[hSer]ENKSLKEQKKLNDLCFLKRLLQEIKTCWNKIL[Nle]GTKEH-NH2 | 30 pM | 20 pM | 0.14 nM | 40 pM | 30 pM | Kd [5]: 7.18 nM; koff [5]: 0.00879 s⁻¹; kon [5]: 1.22e+06 M⁻¹ s⁻¹
CMP-201, synthetic IL-7 variant of Example 2V (ligand, disulfide 34-129, 47-141) {glutaryl‑PEG9‑azide}-DSDIEGKDGKQYESVL[Nle]VSIDQLLDS[Nle]KEIGSNCL[hSer]NEFNFFKRHICDANKEG[Nle]FLFRAARKLRQFLK[Nle]NSTGDF[hSer]LHLLKVSENTTILLNSTGQVKGRKPAALGEAQPTKSL[hSer]ENKSLKEQKKLNDLCFLKRLLQEIKTCWNKIL[Nle]GTKEH-NH2 | 0.7 nM | 0.8 nM | 4.45 nM | 1.7 nM | 1.2 nM | Kd [6]: 19.2 nM; koff [6]: 0.00996 s⁻¹; kon [6]: 518000 M⁻¹ s⁻¹
CMP-107, synthetic IL-7 V15W of SEQ ID NO: 5 with glutaryl-PEG9-azide at the N-terminus (ligand, disulfide 34-129, 47-141, 2-92, also called synthetic IL-7 with V15W) {glutaryl‑PEG9‑azide}-DCDIEGKDGKQYESWL[Nle]VSIDQLLDS[Nle]KEIGSNCL[hSer]NEFNFFKRHICDANKEG[Nle]FLFRAARKLRQFLK[Nle]NSTGDF[hSer]LHLLKVSEGTTILLNCTGQVKGRKPAALGEAQPTKSL[hSer]ENKSLKEQKKLNDLCFLKRLLQEIKTCWNKIL[Nle]GTKEH-NH2 | 0.4 pM | 1 pM | 1.2 nM | 34 pM | 6 pM | Kd [7]: 22.5 nM; koff [7]: 0.0259 s⁻¹; kon [7]: 1.15e+06 M⁻¹ s⁻¹
CMP-111, synthetic IL-7 K81(L6P), G85N of SEQ ID NO: 8 with glutaryl-PEG9-azide at the N-terminus (ligand, disulfide 34-129, 47-141, 2-92) {glutaryl‑PEG9‑azide}-DCDIEGKDGKQYESVL[Nle]VSIDQLLDS[Nle]KEIGSNCL[hSer]NEFNFFKRHICDANKEG[Nle]FLFRAARKLRQFLK[Nle]NSTGDF[hSer]LHLLK(L6P)VSENTTILLNCTGQVKGRKPAALGEAQPTKSL[hSer]ENKSLKEQKKLNDLCFLKRLLQEIKTCWNKIL[Nle]GTKEH-NH2 | 11.2 nM | 11.6 nM | 82.3 nM | 16.2 nM | 12.3 nM | koff [4]: 0.0353 s⁻¹; kon [4]: 1.41e+06 M⁻¹ s⁻¹; Kd [8]: 16.5 nM; koff [8]: 0.0318 s⁻¹; kon [8]: 1.92e+06 M⁻¹ s⁻¹
CMP-202, synthetic IL-7 variant of Example 2W (ligand, disulfide 34-129, 47-141) {glutaryl‑PEG9‑azide}-DSDIEGKDGKQYESVL[Nle]VSIDQLLDS[Nle]KEIGSNCL[hSer]NEFNFFKRHICDANKEG[Nle]FLFRAARKLRQFLK[Nle]NSTGDF[hSer]LHLLK(L6P)VSENTTILLNSTGQVKGRKPAALGEAQPTKSL[hSer]ENKSLKEQKKLNDLCFLKRLLQEIKTCWNKIL[Nle]GTKEH-NH2 | 38.1 nM | 18.9 nM | 32.7 nM | 37.4 nM | 20.4 nM | Kd [9]: 25.4 nM; koff [9]: 0.00997 s⁻¹; kon [9]: 393000 M⁻¹ s⁻¹
